In test [1] the target is allophycocyanin (AP) core cylinders of the Synechocystis phycobilisome.
For test [2] the target is unchanged. The source holds these as a separate data set.
For test [3] the target is unchanged. This is another data set of the same source.
The target in test [4] is CpcA, α-subunit of phycocyanin (Synechocystis sp. PCC 6803). The test can be described thus: densitometry of Zn-chromophore fluorescence bands of affinity-eluted proteins.

For (α,β)3CpcG1*IFN complex, in test [1], the Chl a fluorescence yield normalized to Chl, relative to Δcpc (relative to Δcpc (=1.0)) was determined as 1.55 and the kII of PSII photochemistry minus the kII of Δcpc, 620 nm actinic light, 12 µM DCMU was 22.4 % of WT. On to (α,β*)3CpcG heterohexameric complex, for which, in test [2], the rate constant kII of PSII photochemistry, 620 nm actinic light, DCMU-treated intact cells is 1.57 fold of Δcpc. This substance gave a Chl a fluorescence yield at 700 nm, normalized to [Chl], relative to Δcpc (relative to Δcpc (=1.00)) in test [3] of 1.74. In the same order, the values of (α,β*IFN)3CpcG heterohexameric complex are 1.46 fold of Δcpc and 1.84. As for “(α,β*TTFC)3CpcG1*IFN heterohexameric complex”, in test [1], the Chl a fluorescence yield normalized to Chl, relative to Δcpc (relative to Δcpc (=1.0)) came out at 1.45 and the kII of PSII photochemistry minus the kII of Δcpc, 620 nm actinic light, 12 µM DCMU was 13.4 % of WT. As to (α,β*TTFC)3CpcG heterohexameric complex, the rate constant kII of PSII photochemistry, 620 nm actinic light, DCMU-treated intact cells in test [2] is 1.39 fold of Δcpc. Also, the Chl a fluorescence yield at 700 nm, normalized to [Chl], relative to Δcpc (relative to Δcpc (=1.00)) in test [3] turned out to be 1.66.

Regarding CpcB*S7*6xHis*tev*TTFC fusion protein, the CpcB/CpcA Zn-chromophore fluorescence ratio in the eluted fraction in test [4] amounted to 1.4.

These data come from patent US20240376174A1.
